This data set concerns the molecule itself. Nature of the data set: ELISA; ELISA-based time-resolved fluorescence spectroscopy assay; unlabeled Nectin-2-ED-hFc immobilised on a Delfia Clear Strip Plate, Eu-labeled Nectin-2-ED-hFc at 3.2 ug/mL added together with anti-Nectin-2 mAb at 30 ug/mL or a human IgG control, 1.5 h at room temperature. A general note: An ELISA detects its analyte on a solid surface through an enzyme-linked reagent.

B1: Nectin-2-ED-hFc (Fc fusion, human, UniProt Q92692 32-361, looked up)
chain: QDVRVQVLPEVRGQLGGTVELPCHLLPPVPGLYISLVTWQRPDAPANHQNVAAFHPKMGPSFPSPKPGSERLSFVSAKQSTGQDTEAELQDATLALHGLTVEDEGNYTCEFATFPKGSVRGMTWLRVIAKPKNQAEAQKVTFSQDPTTVALCISKEGRPPARISWLSSLDWEAKETQVSGTLAGTVTVTSRFTLVPSGRADGVTVTCKVEHESFEEPALIPVTLSVRYPPEVSISGYDDNWYLGRTDATLSCDVRSNPEPTGYDWSTTSGTFPTSAVAQGSQLVIHAVDSLFNTTFVCTVTNAVGMGRAEQVIFVRETPNTAGAGATGGI
modifications: europium N1 ITC chelate (only on the Eu-labeled copy added in solution in the Nectin-2-Nectin-2 assay)
notes: signal peptide in the construct; Nectin-2, cloned from cDNA of the A549 human lung cancer cell line, extracellular domain a.a; 1-361; Plasmid pcDNA3.1-Nectin-2-ED-hFc; In the Nectin-2-Nectin-2 assay one copy was unlabeled on the plate and the other Eu-labeled in solution; also called Nectin-2 extracellular domain (a.a. 1-361) fused to the human IgG1 Fc region; source: FreeStyle 293 F cells, …
In the case of B1, the binding result is on record as “binds”.

(Values after paper PMC3698035, “Nectin-2 is a potential target for antibody therapy of breast and ovarian cancers” (Molecular Cancer, 2013).)
